Our source for the protease stability score values is the NTF2 design screens of Basanta et al. (2020).

The series can be described thus: protease stability score; higher = more stable; yeast display proteolysis, trypsin and chymotrypsin.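 Further: relative to predicted unfolded state with 0 unfolded-like and 1 meaning tenfold more protease.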
In turn, “SEETEIIERAMKILLEILETGDEDRQRELMDPHYRLLIGDKVFHGREWAIKWAREIRVDRVELEDREIQGEKLLLHGHIHIRVGDKHHTMEVLIIVEKIDGRWRTHSRHVK” had a protease stability score of 0.651.
The sequence “DESEKDSHMASLHIIELIETGDWRELRELLDPRTRLHIGDKDIHGREEALRNIIRVWHHMRIHRVHIRSIRLQGDYVRVEFEVDGTIDGKHHRIEVEFVAQKIDGRWHLKSEIYH” came in with a protease stability score of 1.12.
For “HEDEHLMKRVAELIFRLLVTGDEDRMRDLLDPTTRMDINGKEFHGRDQVIEVWRRLIDHIRIEEVHLEDHDIYGDKVRWHMRIRTRQGDKQLHLETRFTADKFNGRWELQTVIFK”, the protease stability score came out at 1.64.
“SEEKERNHEIAEILIKLWLTGDEDHFWQLADPNPRVDFDGQEIIGRESIMRLLEHLIRRLGINHKHVDHTERQGDKVHIEVRLDQGEYHRTLHLEFIYVNGRVKEVRIRSRER” registered a protease stability score of 1.4.
The figure for “DEEEHIMKHELEKWWETVDTGDEDEMLRLADPNVRVDFNGREFVGREEFLKHVEFMVKEWRLTDRRIEREHVIDGKMIIHMRVHGTFNGKETDTRIEIILHVVDGKVKSEEYRIK” is 2.06.
The figure for “DEEKKANHFNKEFDRNVQRNNETELRKMVDPNARVNVGEQNYSGRNKMVKIITDWLRKYDKFTIDVRRIDVHGNRIFIDFEMVVVSNGQRRTTEIRVVVEEHNGRLHIRVWEIT” is 1.03; for “SEEEELAREAMRILIEAIVTGDEDEIRRLLDPHVRIEVHIGDKSIKNHGRESMVRILRWLGVDHIDIKRFRLEIQGEFLHLDLDTEFHFNGVTVRTRINNRSLKINGRWQTKEVKYFIE” it is 1.27.
The figure for “SEDEKTTKDVFREIKEILLTGDWRALERLLDPHVRFDINGQEIHGRESILEYWLEQVRRLGIDHIEIRLHHIDVQGDKIHLDVRIIYRYGDKEYREETKFVIIKIDGKWHLKEYHVD” is 2.11.
Take “SAEEHAQRVILELLIEAYETGDEDMLRRLFDPNVRIEIGDKDFVGREDFDHLLERVKNVVFHEIRLRDVKVYNGKVEDNGEINIRYGDKSRTHQVKIVMIKVDGRWMLHDFEIK”: the protease stability score turned out to be 1.96.
With “DEQFKEQKDMHRELEEALLTGDEESWHRLMDPNTRLFFEGRIHHGREEVVRAIREIRRRFGFKVIKRFEVEHVEIIDGRVDIRTIIRGEVNGRDSSLDTRLILNKIDGKWVIQSIIIE”, the protease stability score came out at 2.2.
The figure for “SEEEEESRFMFELIEHFLKTGNWEMISKLADPNMKTVINGKTYHGREMLIHEFEKLGADHITIHDYKDIDGQVIIHTRIHVGDKTYDVVIISEKVDGKWHLKEIHIR” is 1.99; for “SEEEDFMRQVYHWFLELWLTGDEDIFKKLADPDTLLDWNGVQSVGMEEFHRLLHEMEERLGVKHKEYKRFRIQGNKVHLDLVHEFNGRRIKTEIVVVVVNGRFKEIRIRHH” it is 1.79; for “HEEEEHSIRILEEWWRALLTGDEDRLKELMDPHVLLLSDVGDKNHIHIGREEAFRFWHEFVRQVKNMTLRIDQVHVQGDKVHLRGTLLINGRERDIRIDILIINGKVREVRIKII” it is 2.45.
In turn, “TEEEEILHEELRRHKEALETGDEDRLRHLIDPRARMDVNGREFHGMEHIVHFLVEFLLKFKNVRFEIKDFTKIGEYIYVDIHIIVDGRRHHMTVVALKVDGRWRNRHLHID” returned a protease stability score of 1.18.
In the case of “DEIDNELKTALRRLLHTWMTGDEDSLERLADPNVRFHQGDKDMHGREHMVKWFKEMIDRFPNLRIHDFIISEVRFFDGKAELIGTVLRTYGDKTDEVDFTIISTKIDGQWRIHEIRIN”, the protease stability score came out at 1.26.
The figure for “SEDEELSKYLNEEINEILRTGDEDRWKELADPNTLLIIDGREFHGMELVIHLLHHLWKRLGIDQIHSTVEDEKVQGDKIIFHHRLEYNGRESHVIIISHKFNGRWRAKRVEVN” is 1.43; for “DHTHEAVEHLWKLLLHAIATGDFRILSHLLDPNVRIIFNGRTLVGRQSLEILLKRFDHEKIEEVRLRSTRIQGNFVDLDTEIIMVLHYDGKEYRIHTETHVHVVKVDGRWLIEELRID” it is 2.62; for “SEDDETVIRMTHIILHAIFTGDEHITERLMDPHAKVTVGEFDTHGWEELDRFWKEMRMKRLKIRRIDFRWVNGRILSEIVVELDGIVNGRERKITMLIVIIIDKIDGRWVVTEFHFRIE” it is 1.43.
